{"source": "paper PMC4686002", "about": "(2015)", "key": {"[1]": {"target": "T1, FtsZ C-terminal tail peptide C-terminal tail peptide (Escherichia coli, UniProt P0A9A6)", "T1 chain": "KEPDYLDIPAFLRKQAD", "assay": "ITC"}, "[2]": {"target": "the molecule itself", "assay": "analytical ultracentrifugation (sedimentation velocity)"}}, "data": [{"binder": "ZapC (protein) not shown", "values": [{"measurement": "Kd", "setting": "[1]", "result": 32, "unit": "µM"}, {"measurement": "Kd", "setting": "[2]", "result": "~30", "unit": "µM"}]}]}
